The target in one experiment is T1, D2_Wm-01B.
T1 construct: De novo designed component of the two-component D2 dihedral ring D2_Wm-01; untagged (only one component carries the 6xHis tag); also called component B of D2_Wm-01; D2-1
T1 chain: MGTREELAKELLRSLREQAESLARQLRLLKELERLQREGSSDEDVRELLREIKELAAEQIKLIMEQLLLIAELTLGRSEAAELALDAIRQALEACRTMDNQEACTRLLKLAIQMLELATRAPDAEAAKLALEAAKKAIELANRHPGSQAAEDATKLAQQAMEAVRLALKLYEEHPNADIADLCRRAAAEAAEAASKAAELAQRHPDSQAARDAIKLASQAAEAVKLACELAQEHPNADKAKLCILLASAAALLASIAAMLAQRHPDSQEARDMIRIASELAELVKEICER
Kind of experiment: Ni-NTA pulldown of bicistronically co-expressed components (one His-tagged), SDS-PAGE, SEC, SAXS.

For another experiment, the target named is T2, D2_Wm-01_truncB.
T2 construct: D2_Wm-01B with one heptad deleted from the homodimer helices; also called component B of D2_Wm-01_trunc; D2-1_trunc
T2 chain: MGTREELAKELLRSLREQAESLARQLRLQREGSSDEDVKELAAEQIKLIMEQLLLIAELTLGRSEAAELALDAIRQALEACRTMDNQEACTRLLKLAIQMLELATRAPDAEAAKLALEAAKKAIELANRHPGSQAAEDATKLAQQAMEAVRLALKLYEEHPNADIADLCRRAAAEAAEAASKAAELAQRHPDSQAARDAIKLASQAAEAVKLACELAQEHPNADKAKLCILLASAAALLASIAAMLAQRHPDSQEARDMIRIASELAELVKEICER
Kind of experiment: SEC and negative-stain EM of the two-component ring.

The target in the next experiment is T3, D2_Wm-02B.
T3 construct: De novo designed component of the two-component D2 dihedral ring D2_Wm-02; also called component B of D2_Wm-02; D2-2
T3 chain: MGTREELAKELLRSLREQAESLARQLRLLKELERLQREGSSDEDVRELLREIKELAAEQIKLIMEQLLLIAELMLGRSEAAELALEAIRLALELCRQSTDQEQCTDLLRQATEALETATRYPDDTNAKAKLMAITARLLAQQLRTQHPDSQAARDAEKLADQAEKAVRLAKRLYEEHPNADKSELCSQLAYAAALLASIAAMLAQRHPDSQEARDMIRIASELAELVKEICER
Nature of the experiment: Ni-NTA pulldown of bicistronically co-expressed components (one His-tagged), SDS-PAGE, SEC, SAXS.

B1: D2_Wm-01A (designed binder)
chain: MGTREESLKEQLRSLREQAELAARLLRLLKELERLQREGSSDEDVRELLREIKELVAEIIKLIMEQLLLIAEQLLGRSEAAELALRAIRLALELCRQSTDLEECLRLLKTAIKALENALRHPDSTTAKARLMAITARLLAQQLRTQHPDSQAARDAEKLADQAERAVRLATRLYEEHPNAEISEMCSQAAYAAALMASIAAILAQRHPDSQIARDLIRLASELAEMVKRMCERGGSWGLEHHHHHH
notes: De novo designed component of the two-component D2 dihedral ring D2_Wm-01 (8 chains in all, 2 chains as the asymmetric unit); also called component A of D2_Wm-01; D2-1
In the case of B1, in the experiment with D2_Wm-01B, the binding result is listed as “binds”.

B2: D2_Wm-01_truncA (designed binder)
chain: MGTREESLKEQLRSLREQAELAARLLRLQREGSSDEDVKELVAEIIKLIMEQLLLIAEQLLGRSEAAELALRAIRLALELCRQSTDLEECLRLLKTAIKALENALRHPDSTTAKARLMAITARLLAQQLRTQHPDSQAARDAEKLADQAERAVRLATRLYEEHPNAEISEMCSQAAYAAALMASIAAILAQRHPDSQIARDLIRLASELAEMVKRMCERGGSWGLEHHHHHH
notes: D2_Wm-01A with one heptad deleted from the homodimer helices; also called component A of D2_Wm-01_trunc; D2-1_trunc
Take B2: the binding result with D2_Wm-01_truncB is listed as “binds”.

B3: D2_Wm-02A (designed binder)
chain: MGTREEIIRELARSLAEQAELTARLERSLREQERLQREGSSDEDVRELIREQKELVREILKLIAEQILLIAELLLASTRSEAAELALRAIRNAIEACKNADNEEMCRQLMRMAQNALELATQAPDAEAAKAALRAIDLAVELASRHPGSQAADDALKLAQQAAEAVKLALDLYREHPNADIADLCRKAAKEAAEAASKAAELAQRHPDSQAARDAIKLASQAAEAVKLACELAQEHPNAEIAKMCILAASAAALMASIAAILAQRHPDSQIARDLIRLASELAEMVKRMCERGGSWGLEHHHHHH
notes: De novo designed component of the two-component D2 dihedral ring D2_Wm-02; also called component A of D2_Wm-02; D2-2
With B3, in the experiment with D2_Wm-02B, the binding result was “binds”.

The values are drawn from patent US20220213153A1 (University of Washington, published 2022).
